# T1: recombinant human IFN-γ protein (human, UniProt P01579 24-166, limits assumed)
# T1 sequence: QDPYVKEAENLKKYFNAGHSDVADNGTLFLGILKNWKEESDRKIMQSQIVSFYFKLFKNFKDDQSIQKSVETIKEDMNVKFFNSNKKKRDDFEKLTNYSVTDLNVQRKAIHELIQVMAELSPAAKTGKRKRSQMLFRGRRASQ
# T2: rhesus macaque/cynomolgus IFN-γ (rhesus macaque/cynomolgus, UniProt P63310 24-165)
# T2 construct: also called R&D systems 961-RM-025
# T2 sequence (looked up): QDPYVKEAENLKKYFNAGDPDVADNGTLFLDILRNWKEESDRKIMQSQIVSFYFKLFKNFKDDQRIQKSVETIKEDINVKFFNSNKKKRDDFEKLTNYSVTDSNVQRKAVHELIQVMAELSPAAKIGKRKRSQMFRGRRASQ
# What was measured:
# [1] = target: T1, recombinant human IFN-γ protein; test: ELISA, biotinylated human IFN-γ on streptavidin plate, HRP anti-human IgG, OD 450-650 nm
# Protocol: (§1) Recombinant human IFN-γ (R&D systems 285-IF-100) and Cynomolgus IFN-γ (R&D systems 961-RM-025) were biotinylated according to kit manual (EZ-Link NHS-LC-Biotin; Thermo #21336) and bound to streptavidin coated plate respectively. After incubated at room temperature for 1-2 hours, the plate was washed three times with 300 μL wash buffer. Serial dilutions of anti-IFN-γ antibody were added to wells. After incubated at room temperature for 1-2 hours, the plate was washed three times with 300 μL wash buffer. HRP anti-Human IgG was applied to each well at room temperature for 1 hour incubation. After washing, the plates were developed with TMB substrate, and analyzed under OD₄₅₀₋₆₅₀.
# [2] = target: T1, recombinant human IFN-γ protein; test: BLI (Octet RED96), mAb captured on AHC biosensor, recombinant human IFN-γ in solution, 1:1 model; second experiment
# Protocol: (§2) Antibody-binding kinetic rate constants (kₐ and kd) were measured by Bio-Layer Interferometry (BLI, ForteBio Octet RED96). […] Rate constants were calculated by curve fitting analyses (1:1 Langmuir model) of binding response with a 5-minute association and 15-minute dissociation interaction time.
# [3] = target: T1, recombinant human IFN-γ protein; test: cell-based or functional assay
# [4] = target: T1, recombinant human IFN-γ protein; test: BLI (Octet RED96), mAb captured on AHC biosensor, recombinant human IFN-γ in solution, 1:1 model
# Protocol: as §2
# [5] = target: T2, rhesus macaque/cynomolgus IFN-γ; test: ELISA, biotinylated rhesus macaque/cynomolgus IFN-γ on streptavidin plate, HRP anti-human IgG, OD 450-650 nm
# Protocol: as §1
# [6] = target: T3, bovine serum albumin (bovine, UniProt P02769 25-607); test: ELISA, plate coated with 2 µg/mL BSA, anti-human IgG Fc-AP detection, OD 405 nm
# T3 construct: also called BSA
# T3 sequence (P02769 25-607 limits assumed): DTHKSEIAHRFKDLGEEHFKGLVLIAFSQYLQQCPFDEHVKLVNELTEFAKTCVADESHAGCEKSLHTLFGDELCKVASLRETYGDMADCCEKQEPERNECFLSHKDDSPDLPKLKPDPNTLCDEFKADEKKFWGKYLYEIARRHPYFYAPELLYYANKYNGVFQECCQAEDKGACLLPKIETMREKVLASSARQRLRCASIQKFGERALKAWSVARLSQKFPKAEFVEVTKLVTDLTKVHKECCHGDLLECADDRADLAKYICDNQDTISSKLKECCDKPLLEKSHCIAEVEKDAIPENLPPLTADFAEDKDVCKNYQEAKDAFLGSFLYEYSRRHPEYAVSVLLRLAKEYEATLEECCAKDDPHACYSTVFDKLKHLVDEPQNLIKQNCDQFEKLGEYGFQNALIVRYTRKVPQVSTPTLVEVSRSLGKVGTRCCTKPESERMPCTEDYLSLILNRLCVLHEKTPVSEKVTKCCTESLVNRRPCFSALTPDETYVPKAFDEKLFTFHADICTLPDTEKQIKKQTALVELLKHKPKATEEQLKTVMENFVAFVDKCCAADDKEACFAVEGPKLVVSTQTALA
# Protocol: A clear polystyrene 96-well, flat-bottomed plate (Nunc) was coated with 100 μL of recombinant human IFN-γ protein (2 μg/mL) or BSA (2 μg/mL) in bicarbonate buffer (pH 9.6) per well and incubated at 4° C. overnight. The plate was washed three times using phosphate-buffered saline (PBS) with 0.05% Tween 20 and then blocked with 5% human normal serum albumin (Aventis) in PBS for 2 hours at 25° C. The plate was washed again using PBS with 0.05% Tween 20, after which each of 1E8, 2F2, 2A6, 2B6, AB and BA mAbs in two different concentrations of 1 μg/mL and 0.1 μg/mL were added into the wells of the plate for binding with the recombinant human IFN-γ protein, followed by reaction at 25° C. for 2 hours. The plate was thoroughly washed using PBS with 0.05% Tween 20, and then Fc-specific alkaline phosphatase-conjugated AffiniPure Goat anti-human IgG (Cappel) was added at a dilution ratio of 1:2500. The plate was placed for 90 minutes at 37° C. and then washed five times using PBS with 0.05% Tween 20. After adding p-Nitrophenyl phosphate (pNPP) solution (100 μL/well), the plate was placed at 37° C. for 30 minutes. Absorbance was determined at OD405 nm with a VICTOR X3 Multilabel Plate Reader (PerkinElmer).
EC50 (read off the curve) [1] [ng/mL],Kd [2] [nM],koff [2] [s⁻¹],kon [2] [M⁻¹ s⁻¹],"IC50, inhibition of IFN-γ induced HLA-DR expression on THP-1 cells [3] [ng/mL]","IC90, inhibition of IFN-γ induced HLA-DR expression on THP-1 cells [3] [ng/mL]",Kd [4] [nM],koff [4] [s⁻¹],kon [4] [M⁻¹ s⁻¹],EC50 (read off the curve) [5] [ng/mL],binding result [6],Molecule
5,0.0347,8.59e-05,2.48e+06,,,,,,,,AMG811 (antibody)
~7,0.0172,5.4e-05,3.13e+06,3.5,1020,0.0731,0.000108,1.48e+06,~5,no binding (tested: 1.0 µg/mL),"antibody 2B6 (antibody, human IgG1, V domains shown, Human IgG1 lambda) VH: EVQLVESGGGLVKPGGSLRLSCAASGFPFSRYSMHWVRQAPGKGLEWVSSMTSRTNHKYYADSLKGRFLISRDNDRDSLYLEMNSLGVEDTAIYFCARGYDTSGSDSGVDFQYWGQGTLVTVSS VL: NFMLTQPHSVSESPGKTITISCTRGRGYIASYYVQWYQQRPGGVPKIVVFEDTQRPSGVPDRISGSIDTSTNSASLTISGLQTEDEADYYCQSYDDANHVIFGGGTKLTVL"
,,,,36.1,508,0.317,0.000109,344000,,no binding (tested: 1.0 µg/mL),"antibody 2F2 (antibody, human IgG1, V domains shown, Human IgG1 lambda) VH: EVQLVESGGGLVKPGESLRLACVASGFNFSDYYMTWIRQAPGKGLEWVSYISNSGSHTYYADAVKGRFTVSRDNAKNSLYLQMTSLRGEDTAIYFCARDPSIMRGTYYMDVWGKGTTVTVSS VL: QSVLTQPPSASGTPGQRVTISCSGSSSNIGTNPVSWYQQFPGMAPKLLIYFNNQRPSGVPERFSGSKSGTPASLAIGGLQSEDEANYYCASWDDTLNGLVFGGGTKLTVL"
,,,,8.6,48.6,0.261,0.000121,464000,,no binding (tested: 1.0 µg/mL),"antibody 1E8 (antibody, human IgG1, V domains shown, Human IgG1 lambda) VH: EVQLLESGGGLVQPGGPLRLSCAASGFTFSIYSMNWVRQAPGKGLEWVSSISGSGDNTYYADSVKGRFTITRDSSKNTLYLQMNTLRAEDTAVYFCAKSGRNIISPGFDSWGQGTLVTVSS VL: QPVLTQPPSASASLGASVTLTCTLNSDYGDYKVDWYQQRPGKGPRFVMRVGTGGIVGSKGDGIPDRFSVLGSGLNRFLTIKNIQEEDESDYYCGADHGSANNFIWVFGGGTKLTVL"
~7,0.0187,4.9e-05,2.61e+06,3.4,3850,0.0368,3.97e-05,1.08e+06,~5,no binding (tested: 1.0 µg/mL),"antibody 2A6 (antibody, human IgG1, V domains shown, partial N-linked glycosylation at Asn-76 of the VH, Human antibody from a single B cell, cloned into human IgG1 lambda expression vectors and made in FreeStyle 293-F cells) VH: EVQLVESGGGLVKPGDSLTVSCVASGFTFSNYFIHWVRQAPGKGLEWVATISGRTKYMFYSDSLRGRFTVSRDNANNSVYLHMSSLRGEDTALYYCVRGYDHSDSNSAADLLHWGRGTLVTVSS VL: NFMLTQPLSVSGYPGKTIVISCVRSSGSVASHYVQWFQQRPGSAPAMVIYEDSHRPSGIPDRFSGSVDASSNSASLTISGLKTEDEADYFCQSYYGNNQVLFGGGTKLTVL"
~7,0.025,5.46e-05,2.19e+06,,,,,,~5,no binding (tested: 1.0 µg/mL),"antibody AB (antibody, human IgG1, V domains shown, Combination of the 2A6 VH heavy chain and the 2B6 VL light chain; human IgG1 lambda; also called VH2A6/VL2B6) VH: EVQLVESGGGLVKPGDSLTVSCVASGFTFSNYFIHWVRQAPGKGLEWVATISGRTKYMFYSDSLRGRFTVSRDNANNSVYLHMSSLRGEDTALYYCVRGYDHSDSNSAADLLHWGRGTLVTVSS VL: NFMLTQPHSVSESPGKTITISCTRGRGYIASYYVQWYQQRPGGVPKIVVFEDTQRPSGVPDRISGSIDTSTNSASLTISGLQTEDEADYYCQSYDDANHVIFGGGTKLTVL"
,,,,,,,,,,no binding (tested: 1.0 µg/mL),"antibody BA (antibody, human IgG1, V domains shown, Combination of the 2B6 VH heavy chain and the 2A6 VL light chain; human IgG1 lambda; also called VH2B6/VL2A6) VH: EVQLVESGGGLVKPGGSLRLSCAASGFPFSRYSMHWVRQAPGKGLEWVSSMTSRTNHKYYADSLKGRFLISRDNDRDSLYLEMNSLGVEDTAIYFCARGYDTSGSDSGVDFQYWGQGTLVTVSS VL: NFMLTQPLSVSGYPGKTIVISCVRSSGSVASHYVQWFQQRPGSAPAMVIYEDSHRPSGIPDRFSGSVDASSNSASLTISGLKTEDEADYFCQSYYGNNQVLFGGGTKLTVL"
~7,0.0223,5.17e-05,2.32e+06,,,,,,~5,,"antibody 2A6_A (antibody, human IgG1, V domains shown, removes the N-glycosylation site of the VH; human IgG1 lambda; also called c2A6_A) VH: EVQLVESGGGLVKPGDSLTVSCVASGFTFSNYFIHWVRQAPGKGLEWVATISGRTKYMFYSDSLRGRFTVSRDNAANSVYLHMSSLRGEDTALYYCVRGYDHSDSNSAADLLHWGRGTLVTVSS VL: NFMLTQPLSVSGYPGKTIVISCVRSSGSVASHYVQWFQQRPGSAPAMVIYEDSHRPSGIPDRFSGSVDASSNSASLTISGLKTEDEADYFCQSYYGNNQVLFGGGTKLTVL"
~7,0.0217,5.23e-05,2.41e+06,,,,,,~5,,"antibody 2A6_Q (antibody, human IgG1, V domains shown, removes the N-glycosylation site of the VH; human IgG1 lambda; also called c2A6_Q) VH: EVQLVESGGGLVKPGDSLTVSCVASGFTFSNYFIHWVRQAPGKGLEWVATISGRTKYMFYSDSLRGRFTVSRDNAQNSVYLHMSSLRGEDTALYYCVRGYDHSDSNSAADLLHWGRGTLVTVSS VL: NFMLTQPLSVSGYPGKTIVISCVRSSGSVASHYVQWFQQRPGSAPAMVIYEDSHRPSGIPDRFSGSVDASSNSASLTISGLKTEDEADYFCQSYYGNNQVLFGGGTKLTVL"

# — US20210171624A1 (ELIXIRON IMMUNOTHERAPEUTICS HONG KONG, published 2021)
